Experimental data reported in publication PMC5056641.

Biological target: SRSF1 (ASF/SF2), unphosphorylated (human, UniProt Q07955 1-248)
Experiment: filter binding

Chain of SRSF1 (ASF/SF2), unphosphorylated (Q07955 whole entry): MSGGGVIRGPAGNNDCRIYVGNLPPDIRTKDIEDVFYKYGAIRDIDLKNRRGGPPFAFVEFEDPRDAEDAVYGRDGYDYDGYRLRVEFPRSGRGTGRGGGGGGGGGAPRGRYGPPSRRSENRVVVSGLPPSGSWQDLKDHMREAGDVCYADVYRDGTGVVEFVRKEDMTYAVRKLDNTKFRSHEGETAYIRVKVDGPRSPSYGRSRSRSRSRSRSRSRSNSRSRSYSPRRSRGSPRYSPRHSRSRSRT

B1: Ron ESE 13mer (ssRNA)
RNA: AGGCGGAGGAAGC
apparent K (half saturation): 66 ± 2 nM
